Source: publication PMC2387164, “A GATA4/WT1 cooperation regulates transcription of genes required for mammalian sex determination and differentiation”
Blank lines part the entries; values can stand above or below the molecule they belong to.

Experiments:
[1] = molecular target: WT1(+KTS) overexpressed in HeLa cells (mouse) (UniProt P22561)
GATA4 [2] = molecular target: T1, GATA4 (UniProt Q08369 1-441); test: EMSA; EMSA conditions as described previously (ref. 48); buffer, salt, pH and temperature not given; settings: protein: ivt; label: 32P (as probe); 5' overhang 4 nt (GATC) both ends
T1 sequence (Q08369 whole entry): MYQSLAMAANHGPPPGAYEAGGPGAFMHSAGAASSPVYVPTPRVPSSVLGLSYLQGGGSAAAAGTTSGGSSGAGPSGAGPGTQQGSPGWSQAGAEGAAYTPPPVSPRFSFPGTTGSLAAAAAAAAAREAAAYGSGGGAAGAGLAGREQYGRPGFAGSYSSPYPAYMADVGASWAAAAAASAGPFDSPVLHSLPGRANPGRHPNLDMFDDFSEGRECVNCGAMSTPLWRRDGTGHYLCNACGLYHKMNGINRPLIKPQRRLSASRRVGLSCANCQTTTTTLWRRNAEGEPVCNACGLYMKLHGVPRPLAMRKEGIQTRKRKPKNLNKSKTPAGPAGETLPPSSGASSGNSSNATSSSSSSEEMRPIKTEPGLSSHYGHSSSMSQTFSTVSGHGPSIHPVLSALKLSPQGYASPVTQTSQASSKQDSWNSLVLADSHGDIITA

GATA4 [3] = molecular target: T1, GATA4; test: competition; competitor of labeled GATA site 1; EMSA conditions as described previously (ref. 48); buffer, salt, pH and temperature not given; settings: protein: ivt; 5' overhang 4 nt (GATC) both ends
WT1(+KTS) = WT1(+KTS) (mouse, UniProt P22561 1-449); test: EMSA; blocked by 10-fold excess self competitor; EMSA conditions as described previously (ref. 48); buffer, salt, pH and temperature not given; settings: protein: ivt; label: 32P (as probe); 5' overhang 4 nt (GGAT on strand 1, GATC on strand 2)
Sequence of WT1(+KTS) (P22561 whole entry): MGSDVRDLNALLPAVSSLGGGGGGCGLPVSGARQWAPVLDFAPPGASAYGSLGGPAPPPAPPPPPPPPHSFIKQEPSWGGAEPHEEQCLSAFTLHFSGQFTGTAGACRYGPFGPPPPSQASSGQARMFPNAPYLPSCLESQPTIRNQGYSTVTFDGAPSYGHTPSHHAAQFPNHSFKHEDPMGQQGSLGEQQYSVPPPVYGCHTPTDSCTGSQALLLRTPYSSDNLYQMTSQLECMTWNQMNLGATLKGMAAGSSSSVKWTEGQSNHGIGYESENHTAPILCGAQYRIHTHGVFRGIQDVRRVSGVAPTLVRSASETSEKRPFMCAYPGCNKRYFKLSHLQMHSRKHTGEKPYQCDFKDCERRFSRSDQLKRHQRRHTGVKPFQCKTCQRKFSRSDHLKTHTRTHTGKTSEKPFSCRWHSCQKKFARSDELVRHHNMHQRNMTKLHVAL

WT1(-KTS) = WT1(-KTS) (mouse, UniProt P22561-4 1-446); test: as above; settings: protein: ivt; label: 32P (as probe); 5' overhang 4 nt (GGAT on strand 1, GATC on strand 2)
Sequence of WT1(-KTS) (P22561 other isoform, or with tags, fused parts or gaps): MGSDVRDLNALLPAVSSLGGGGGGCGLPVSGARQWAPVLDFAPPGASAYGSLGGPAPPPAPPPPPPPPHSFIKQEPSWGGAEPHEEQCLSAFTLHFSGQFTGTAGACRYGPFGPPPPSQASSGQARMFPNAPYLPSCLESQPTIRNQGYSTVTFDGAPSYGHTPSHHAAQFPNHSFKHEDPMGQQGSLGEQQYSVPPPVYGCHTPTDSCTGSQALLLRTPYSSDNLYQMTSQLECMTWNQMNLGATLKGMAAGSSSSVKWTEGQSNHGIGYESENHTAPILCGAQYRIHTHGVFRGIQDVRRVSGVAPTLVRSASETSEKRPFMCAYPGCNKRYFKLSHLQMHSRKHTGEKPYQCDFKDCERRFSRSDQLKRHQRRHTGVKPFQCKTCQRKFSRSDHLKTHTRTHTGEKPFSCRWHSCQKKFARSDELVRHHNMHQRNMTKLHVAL

Sequence of WT1(+KTS) overexpressed in HeLa cells (mouse) (P22561 whole entry): as the sequence (P22561 whole entry) above

luciferase reporter, -1090 bp mouse Sry promoter, co-transfected HeLa cells, fold activation over control [1]: 30 fold
luciferase reporter, -1400 bp pig SRY promoter, co-transfected HeLa cells, fold activation over control [1]: 50 fold
Molecule: GATA4 overexpressed in HeLa cells (from UniProt P46152 1-440) (natural protein)

B1: pig SRY GATA site 1 (dsDNA)
DNA 1: GATCCGCCTTATTATCATAATAAA
DNA 2: GATCTTTATTATGATAATAAGGCG
binding result (GATA4 [2]): binds

B2: pig SRY GATA site 4 (dsDNA)
DNA 1: GATCCCCAAGGTTATCTGTTTTTA
DNA 2: GATCTAAAAACAGATAACCTTGGG
binding result (GATA4 [3]): binds

B3: pig SRY GATA site 2 (dsDNA)
DNA 1: GATCCATTGGGTTATCTTGAATCA
DNA 2: GATCTGATTCATGATAACCCAATG
binding result (GATA4 [3]): binds

B4: pig SRY GATA site 3 (dsDNA)
DNA 1: GATCCACATACTGATAATCATCAA
DNA 2: GATCTTGATGATTATCAGTATGTG
binding result (GATA4 [3]): binds

B5: human AMH distal WT1 element (dsDNA)
DNA 1: GGATCACTGGGGAGGGAGATAGGA
DNA 2: GATCTCCTATCTCCCTCCCCAGTG
binding result (WT1(+KTS)): binds
binding result (WT1(-KTS)): binds
